T1: ovine FAP (oFAP) extracellular domain (ECD) (sheep)
T1 construct: also called oFAP-ECD
T1 chain: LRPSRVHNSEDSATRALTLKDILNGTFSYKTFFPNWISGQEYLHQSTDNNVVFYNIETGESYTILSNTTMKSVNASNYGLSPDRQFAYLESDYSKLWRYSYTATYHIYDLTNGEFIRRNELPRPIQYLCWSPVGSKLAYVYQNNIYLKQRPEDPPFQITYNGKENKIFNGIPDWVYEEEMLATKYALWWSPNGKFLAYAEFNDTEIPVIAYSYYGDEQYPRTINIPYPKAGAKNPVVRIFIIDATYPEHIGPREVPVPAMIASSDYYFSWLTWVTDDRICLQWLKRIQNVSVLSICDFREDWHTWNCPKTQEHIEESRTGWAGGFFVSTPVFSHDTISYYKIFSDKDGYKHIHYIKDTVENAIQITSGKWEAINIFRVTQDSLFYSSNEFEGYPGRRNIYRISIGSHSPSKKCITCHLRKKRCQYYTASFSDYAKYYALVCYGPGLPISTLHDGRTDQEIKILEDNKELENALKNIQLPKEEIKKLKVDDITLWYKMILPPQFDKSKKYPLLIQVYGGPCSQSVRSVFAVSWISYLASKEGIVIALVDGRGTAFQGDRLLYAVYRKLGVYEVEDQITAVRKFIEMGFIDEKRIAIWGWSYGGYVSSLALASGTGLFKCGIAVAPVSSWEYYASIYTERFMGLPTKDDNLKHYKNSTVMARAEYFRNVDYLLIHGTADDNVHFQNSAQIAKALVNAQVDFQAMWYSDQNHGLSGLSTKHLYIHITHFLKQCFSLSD

T2: canine FAP (caFAP) extracellular domain (ECD) (domestic dog (Canis familiaris))
T2 construct: also called caFAP-ECD
T2 chain: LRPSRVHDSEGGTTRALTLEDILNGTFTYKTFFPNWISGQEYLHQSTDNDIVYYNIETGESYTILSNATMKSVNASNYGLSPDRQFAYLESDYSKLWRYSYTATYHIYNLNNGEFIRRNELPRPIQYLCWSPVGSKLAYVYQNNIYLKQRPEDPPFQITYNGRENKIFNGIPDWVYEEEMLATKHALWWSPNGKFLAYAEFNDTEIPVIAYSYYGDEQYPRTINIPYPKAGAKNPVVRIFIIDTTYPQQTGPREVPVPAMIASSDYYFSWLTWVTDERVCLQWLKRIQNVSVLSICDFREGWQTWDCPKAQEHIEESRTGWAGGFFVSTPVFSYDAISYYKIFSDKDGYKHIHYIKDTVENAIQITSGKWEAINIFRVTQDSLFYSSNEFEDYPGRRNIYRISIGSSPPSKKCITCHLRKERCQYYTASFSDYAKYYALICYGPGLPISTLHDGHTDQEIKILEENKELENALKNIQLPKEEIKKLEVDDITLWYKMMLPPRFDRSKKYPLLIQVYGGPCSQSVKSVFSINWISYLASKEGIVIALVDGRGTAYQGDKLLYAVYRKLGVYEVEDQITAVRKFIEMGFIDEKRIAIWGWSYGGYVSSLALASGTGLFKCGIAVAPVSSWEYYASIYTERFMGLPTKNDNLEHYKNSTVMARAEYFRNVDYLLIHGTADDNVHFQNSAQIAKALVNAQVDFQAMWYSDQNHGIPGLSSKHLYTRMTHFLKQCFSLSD


What was measured:
[1] = target: T1, ovine FAP (oFAP) extracellular domain …; test: ELISA, 120 nM oFAP-ECD coated on Maxisorp plates
Protocol: (§1) Cross-reactivity of the anti-hFAP antibodies with oFAP-ECD and pFAP-ECD was tested using ELISA. 120 nM of oFAP-ECD or pFAP-ECD was coated on Maxisorp plates overnight at 4° C. […] Specifically, the C5 antibody was employed in IgG2a format, while all other antibodies, including the 7NP2 antibody, were in IgG1 format. The differences between the IgG2a and IgG1 formats are not expected to affect binding to FAP. After 3 washes with PBS, binding of the antibodies to oFAP-ECD and pFAP-ECD was detected using an anti-human or anti-murine antibody HRP conjugate.

[2] = target: T2, canine FAP (caFAP) extracellular domain …; test: ELISA, 120 nM caFAP-ECD coated, antibody at 5 ug/mL
Protocol: as §1, with “caFAP-ECD” for “oFAP-ECD and pFAP-ECD”, “caFAP-ECD” for “oFAP-ECD or pFAP-ECD”

| binding result [1] | binding result [2] | Binder |
| --- | --- | --- |
| no binding (tested: 5 µg/mL) |  | anti-hen egg lysozyme antibody KSF in IgG1 format (antibody, V domains shown, Negative control; It was conjugated to FITC in the immunofluorescence and ex vivo experiments; also called KSF IgG1; KSF(IgG1)) VH: not shown VL: SSELTQDPAVSVALGQTVRITCQGDSLRSYYASWYQQKPGQAPVLVIYGKNNRPSGIPDRFSGSSSGNTASLTITGAQAEDEADYYCQSSPLNRLAVVFGGGTKLTVLG |
|  | binds | anti-FAP antibody 7NP2 in IgG1 format (antibody, V domains shown, also called 7NP2 IgG1; 7NP2(IgG1)) VH: EVQLLESGGGLVQPGGSLRLSCAASGFTFSSYAMSWVRQAPGKGLEWVSAIGSVGGPTYYADSVKGRFTISRDNSKNTLYLQMNSLRAEDTAVYYCAKRLAWFDYWGQGTLVTVSS VL: EIVLTQSPGTLSLSPGERATLSCRASQSVSSSYLAWYQQKPGQAPRLLIYGASSRATGIPDRFSGSGSGTDFTLTISRLEPEDFAVYYCQQSGKGPLTFGQGTKVEIKR |
